This note sets out measurements from article PMC12167710.

Test [1] concerns the target recombinant mouse IgG1κ isotype control antibody (clone P3.6.2.8.1) (mouse).
Test [2] has as its target recombinant human IgG1λ isotype control antibody (clone AbD00264_hIgG1) (human).

B1: anti-mouse κ VHH (TP1170) (VHH)
VHH: QVQLVESGGGWVQPGGSLRLSCAASGFTFSDTAMMWVRQAPGKGREWVAAIDTGGGYTYYADSVKGRFTISRDNAKNTLYLQMNSLKPEDTARYYCAKTYSGNYYSNYTVANYGTTGRGTLVTVSS
With B1, the Kd in test [1] stood at 0.0167 nM.

B2: anti-human λ VHH (HuFab lambda 1) (VHH)
VHH: QVQLQDSGGGLVQPGGSLRLSCAASGFTLDYYAIGWFRQAPGKEREGVSCISSSDGSSDGYTYYADSVKGRFTISRDNAKNTVYLQMNNLKPEDTAVYYCAARLFGVATTDPSYFDSWGQGTQVTVSS
Turning to B2, the dissociation constant Kd in test [2] is 1.35 nM.
